Results published in paper PMC4436075 (mBio, 2015).

Biological target: the molecule itself
Test: cross-linking

B1: Alg44-6His (natural protein, Pseudomonas aeruginosa, UniProt Q9HY69 1-389, looked up)
chain: MNTAVNVNVVHESEAQRQFARVKLPARIRYIGANREGVDARLLDLSAGGFAFTASGAPIQPGDLYKGKLLFQVDSISFSLEVEFQVRSVDPASRRVGCEFQNLKPREVAALRYLITSYLAGEVIGVGDMLNTLQRENFTKARKQGGGNGGMGFFGRVRAVTLSTAIFVVGVGAFAFILNQMYNLYFVTHADSGVVSVPNQQITMPREGTVQSLLGPNAEVAKGAPIATFSANLLDMLKGNLTEEQLNPGNIEKLFGHQMKGTLTSPCDCRVVQQLVADGQYANKGQVIFTLAPRDSVASIEARFPYRNAAELAPGTRVNFQVAGDGVNRSGRIVNTAPVDGDLSSEIRVQIQPDQPLDAQYAGRPAEVSIGGLPGRTLLNKAVTLATAR
stoichiometry N: 2
